According to patent US20210180049A1 (CHUGAI SEIYAKU KABUSHIKI KAISHA, priority 2013, published 2021):

How the values were obtained:
[1] = molecular target: T1, human IL-6 receptor (hIL-6R) (Homo sapiens, UniProt P08887); assay: IgG ELISA for hIL-6R binding under small molecule conditions of Table 12; settings: IgG 2.5 μg/mL
T1 sequence (P08887 20-357 limits assumed): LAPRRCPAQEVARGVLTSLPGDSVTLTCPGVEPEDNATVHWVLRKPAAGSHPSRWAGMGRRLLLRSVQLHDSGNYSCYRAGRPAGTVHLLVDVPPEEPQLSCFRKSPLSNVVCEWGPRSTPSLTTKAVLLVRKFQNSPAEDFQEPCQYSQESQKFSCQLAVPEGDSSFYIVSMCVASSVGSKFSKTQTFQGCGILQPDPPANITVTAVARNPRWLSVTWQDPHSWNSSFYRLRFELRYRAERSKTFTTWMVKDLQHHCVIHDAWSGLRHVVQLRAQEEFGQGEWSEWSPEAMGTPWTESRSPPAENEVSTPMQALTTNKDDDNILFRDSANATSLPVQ
Procedure: Three types of obtained antibodies 6RNMSC1-2_F02, 6RNMSC1-3_G02, and GC413 were subjected to ELISA under the nine conditions shown in Table 12. The antigen used was biotin-labeled hIL-6R.
First, a StreptaWell 96 microtiter plate (Roche) was coated with 100 μL of PBS containing biotin-labeled hIL-6R at room temperature for one hour or longer. […] 100 μL of each of the purified IgGs prepared at 2.5 μg/mL using Sample Buffer containing small molecules at the final concentrations shown in Table 12 were added to each well, and the plate was let still at room temperature for one hour to allow each IgG to bind to biotin-labeled hIL-6R present in each well. After washing with Wash Buffer containing small molecules at the final concentrations shown in Table 12, HRP-conjugated anti-human IgG antibody (BIOSOURCE) diluted with Sample Buffer containing the same small molecules was added to each well and the plate was incubated for one hour. After washing with Wash Buffer containing respective small molecules, the chromogenic reaction of TMB single solution (ZYMED) added in each well was terminated by adding sulfuric acid. Then, the color development was measured by absorbance at 450 nm.

[2] = molecular target: T1, human IL-6 receptor (hIL-6R); assay: SPR dissociation of antibody from immobilized hIL-6R with or without kynurenine; type: binding; settings: bound in 100 μmol/L kynurenine, then buffer without kynurenine
Procedure: The running buffers used were 20 mmol/L ACES, 150 mmol/L NaCl, 0.05% (w/v) Tween 20, pH 7.4, and 20 mmol/L ACES, 150 mmol/L NaCl, 0.05% (w/v) Tween 20, pH 7.4, 100 μmol/L kynurenine. The measurements were performed at 25° C. As an analyte, 5 μg/mL 6RNMSC1-2_F02 diluted with 20 mmol/L ACES, 150 mmol/L NaCl, 0.05% (w/v) Tween 20, pH 7.4, containing 100 μmol/L kynurenine was allowed to interact for 180 seconds with hIL-6R immobilized onto Sensor chip CM5 by amine coupling. Then, the mode of the dissociation of hIL-6R was observed under each running buffer condition. […] Specifically, the regulation by kynurenine on binding of the antibody to hIL-6R was confirmed to be reversible.

[3] = molecular target: T1, human IL-6 receptor (hIL-6R); assay: SPR effect of kynurenine concentration on binding to immobilized hIL-6R; settings: 1 μg/mL antibody, 180 seconds
Procedure: Next, the effect of kynurenine concentration on antigen-antibody reaction between 6RNMSC1-2_F02 and hIL-6R was assessed using Biacore T200 (GE Healthcare). The running buffer used was 20 mmol/L ACES, 150 mmol/L NaCl, 0.05% (w/v) Tween 20, pH 7.4. Antigen-antibody reaction between 6RNMSC1-2_F02 and human IL-6R was assayed at 25° C. hIL-6R was immobilized onto Sensor chip CM5 by amine coupling. As an analyte, 1 μg/mL 6RNMSC1-2_F02 diluted with 20 mmol/L ACES, 150 mmol/L NaCl, 0.05% (w/v) Tween 20, pH 7.4, containing kynurenine adjusted to various concentrations were allowed to interact for 180 seconds and changes in the amount of binding were observed.

[4] = SPR (Biacore T200) binding of 6RNMSC1-2_F02 and variants to kynurenine
Procedure: An appropriate amount of protein A (Invitrogen) was immobilized onto Sensor chip CM4 (GE Healthcare) by the amine coupling method. The antibody of interest was captured thereon, and the antigen kynurenine and derivatives thereof were allowed to interact. The running buffer used was 50 mmol/L Tris-HCl, 150 mmol/L NaCl, 0.02% (w/v) Tween 20, 5% DMSO, pH 7.6. All measurements were carried out at 15° C. The antigens were diluted with the running buffer.
Then, the running buffer was run at a flow rate of 30 μL/min for 60 seconds to observe the dissociation of antigens from the antibody. Kinetic parameters, the association rate constant ka (1/Ms) and the dissociation rate constant kd (l/s), were calculated based on the sensorgrams obtained by the measurements. The dissociation constant KD (M) was calculated from these constants. Each parameter was calculated using Biacore T200 Evaluation Software (GE Healthcare).
(§1) Meanwhile, the type of sensor chip immobilized with Protein A was changed to Sensor chip Series S CM3 (GE Healthcare) to measure some of the variants. When kynurenine dissociation was too fast to determine the dissociation rate constant, a dissociation constant KD (M) was calculated by analysis of equilibrium values based on the degree of binding response during the interaction with each antigen (association phase). In this case also, Biacore T200 Evaluation Software (GE Healthcare) was used to calculate the parameters.
as §1
(§2) When kynurenine dissociation was too fast to determine the dissociation rate constant, the dissociation constant KD (M) was calculated by analysis of equilibrium values based on the degree of binding response when it is interacted with each antigen (association phase). Also in this case, the Biacore T200 Evaluation Software (GE Healthcare) was used to calculate parameters. […] Each variant and its parental antibody F02h011/F021003 were compared in terms of the KD value for kynurenine.
as §2, with “analyzing” for “analysis of”, “sequence” for “antibody”

Procedure for Tm measurement by DSC: Measurement by DSC was carried out by a method known to those skilled in the art.
DSC measurement was carried out by a method known to those skilled in the art.

B1: 6RNMSC1-2_F02: antibody binding hIL-6R in the presence of kynurenine; heavy chain SEQ ID NO: 32, light chain SEQ ID NO: 33 (antibody, listed as Homo sapiens, V domains shown)
VH: QVQLVQSGAEVKKPGSSVKVSCKASGGTFSSYAISWVRQAPGQGLEWMGGIIPIFGTANYAQKFQGRVTITADESTSTAYMELSSLRSEDTAVYYCARDAPVVARPRGAFDIWGQGTMVTVSS
VL: DIVMTQTPLSSPVTLGQPASISCRSSQSLVHSDGNTYLSWLQQRPGQPPRLLIHEISNRFSGVPDRFSGSGAGTNFTLKISRVEAEDVGVYYCMQATQFPRTFGQGTKVEIK
[1]; absorbance at 450 nm
  absorbance under condition 9 (no small molecule) compared to condition 8 (cocktail of all small molecules): significantly lower
[1]; conditions 1-9 of Table 12, absorbance at 450 nm
  small molecule in whose presence the antibody binds hIL-6R: binds to the antigen hIL-6R in the presence of kynurenine
[2]
  dissociation from hIL-6R when kynurenine is no more present: rapidly dissociating hIL-6R
[3]
  effect of kynurenine concentration on the amount of binding to hIL-6R: the higher the concentration of kynurenine acting as a switch, the greater the amount of 6RNMSC1-2_F02 binding to hIL-6R
[4]; Biacore
  kynurenine binding (in words): confirmed once again to bind to kynurenine
[4]; Biacore T200, 15° C., 5% DMSO
  Kd: 239 µM
  ka for kynurenine: 709 M⁻¹ s⁻¹
  kd for kynurenine: 0.17 L/s
Tm measurement by DSC
  Tm: 82.9 °C
